# B1: MexT regulatory domain (domain or fragment, Pseudomonas aeruginosa, UniProt Q9I0Z0 95-304, looked up)
# chain: PATSTAVFRIGLSDDVEFGLLPPLLRRLRAEAPGIVLVVRRANYLLMPNLLASGEISVGVSYTDELPANAKRKTVRRSKPKILRADSAPGQLTLDDYCARPHALVSFAGDLSGFVDEELEKFGRKRKVVLAVPQFNGLGTLLAGTDIIATVPDYAAQALIAAGGLRAEDPPFETRAFELSMAWRGAQDNDPAERWLRSRISMFIGDPDSL
# Biological target: the molecule itself
# Experiment: SEC-MALS
protein,measurement,value
B1,stoichiometry N,2
